In patent US20220017622A1 (Pfizer, published 2022):

T1: human B7-H4 on cells (human, UniProt Q7Z7D3 25-282)
T1 construct: whole, on cells; Tumour cell lines with endogenous B7-H4 or HEK293 transfected with human B7-H4
T1 sequence (looked up): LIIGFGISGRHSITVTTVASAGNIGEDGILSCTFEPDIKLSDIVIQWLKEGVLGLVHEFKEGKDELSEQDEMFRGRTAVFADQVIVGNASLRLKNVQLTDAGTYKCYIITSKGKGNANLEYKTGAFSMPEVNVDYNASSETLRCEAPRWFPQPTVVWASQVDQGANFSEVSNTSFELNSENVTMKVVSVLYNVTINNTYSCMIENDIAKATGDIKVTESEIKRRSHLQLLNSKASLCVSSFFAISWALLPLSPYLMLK


Columns and labels:
human B7-H4 on cells [1] = target: T1, human B7-H4 on cells; test: flow cytometry on MX-1 cells, 37 C
[2] = target: T2, human CD3 on primary human T cells (human, UniProt P07766 23-207; P04234 22-171); test: flow cytometry on primary human T cells, 37 C
T2 construct: whole, on cells; On cells the whole CD3/TCR complex is present
T2 sequence (P07766 23-207, chain 1 of 2): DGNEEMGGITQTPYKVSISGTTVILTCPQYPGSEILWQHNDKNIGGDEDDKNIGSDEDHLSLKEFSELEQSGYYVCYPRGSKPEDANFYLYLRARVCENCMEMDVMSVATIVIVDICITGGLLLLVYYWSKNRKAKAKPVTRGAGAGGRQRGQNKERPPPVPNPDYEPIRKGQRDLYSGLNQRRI
T2 sequence (P04234 22-171, chain 2 of 2): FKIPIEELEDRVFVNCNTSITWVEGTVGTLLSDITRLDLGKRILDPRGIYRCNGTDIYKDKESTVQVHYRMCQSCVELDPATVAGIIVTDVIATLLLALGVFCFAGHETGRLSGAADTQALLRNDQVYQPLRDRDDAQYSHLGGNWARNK

human B7-H4 on cells [3] = target: T1, human B7-H4 on cells; test: cell-based or functional assay
Wherever T cell mediated tumor cell killing, OVCAR3-Luc is given: unit not given here.
Wherever T cell mediated tumor cell killing, T47D is given: unit not given here.

EC50 (human B7-H4 on cells [1]) [nM] | EC50 [2] [nM] | Binder | T cell mediated tumor cell killing EC50, HCC1954-Luc (human B7-H4 on cells [3]) [nM] | T cell mediated tumor cell killing, OVCAR3-Luc (human B7-H4 on cells [3]) | T cell mediated tumor cell killing, T47D (human B7-H4 on cells [3])
3.9 | 9.77 | B7-H4xCD3 bispecific antibody 0999 (bispecific antibody, IgG2, Chains 1-2: B7-H4 arm; chains 3-4: CD3 arm; IgG2) heavy 1: EVQLLESGGGLVQPGGSLRLSCAASGFTFSSYAMSWVRQAPGKGLEWVSAISGGGGSTYYADSVKGRFTISRDNSKNTLYLQMNSLRAEDTAVYYCARDIQWYGESTLFDYWGQGTLVTVSSASTKGPSVFPLAPCSRSTSESTAALGCLVKDYFPEPVTVSWNSGALTSGVHTFPAVLQSSGLYSLSSVVTVPSSNFGTQTYTCNVDHKPSNTKVDKTVERKCEVECPECPAPPVAGPSVFLFPPKPKDTLMISRTPEVTCVVVAVSHEDPEVQFNWYVDGVEVHNAKTKPREEQFNSTFRVVSVLTVVHQDWLNGKEYKCKVSNKGLPSSIEKTISKTKGQPREPQVYTLPPSREEMTKNQVSLTCEVKGFYPSDIAVEWESNGQPENNYKTTPPMLDSDGSFFLYSKLTVDKSRWQQGNVFSCSVMHEALHNHYTQKSLSLSPG light 1: DIQLTQSPSTLSASVGDRVTITCRASQSIRSWLAWFQQKPGKAPKLLIYKASSLEGGVPSRFSGSGSGTEFTLTISSLQPDDFATYYCQQYNSYSRTFGQGTKVEIKRTVAAPSVFIFPPSDEQLKSGTASVVCLLNNFYPREAKVQWKVDNALQSGNSQESVTEQDSKDSTYSLSSTLTLSKADYEKHKVYACEVTHQGLSSPVTKSFNRGEC heavy 2: EVQLVESGGGLVQPGGSLRLSCAASGFTFSDYYMTWVRQAPGKGLEWVAFIRNQARGYTSDHNPSVKGRFTISRDNAKNSLYLQMNSLRAEDTAVYYCARDRPSYYVLDYWGQGTTVTVSSASTKGPSVFPLAPCSRSTSESTAALGCLVKDYFPEPVTVSWNSGALTSGVHTFPAVLQSSGLYSLSSVVTVPSSNFGTQTYTCNVDHKPSNTKVDKTVERKCRVRCPRCPAPPVAGPSVFLFPPKPKDTLMISRTPEVTCVVVAVSHEDPEVQFNWYVDGVEVHNAKTKPREEQFNSTFRVVSVLTVVHQDWLNGKEYKCKVSNKGLPSSIEKTISKTKGQPREPQVYTLPPSREEMTKNQVSLTCLVKGFYPSDIAVEWESNGQPENNYKTTPPMLDSDGSFFLYSRLTVDKSRWQQGNVFSCSVMHEALHNHYTQKSLSLSPGK light 2: DIQMTQSPSSLSASVGDRVTITCTSSQSLFNVRSQKNYLAWYQQKPGKAPKLLIYWASTRESGVPSRFSGSGSGTDFTLTISSLQPEDFATYYCKQSYDLFTFGGGTKVEIKRTVAAPSVFIFPPSDEQLKSGTASVVCLLNNFYPREAKVQWKVDNALQSGNSQESVTEQDSKDSTYSLSSTLTLSKADYEKHKVYACEVTHQGLSSPVTKSFNRGEC | 277 | 90 | 258
1.47 | 5.73 | B7-H4xCD3 bispecific antibody 1133 (bispecific antibody, IgG2, Chains 1-2: B7-H4 arm; chains 3-4: CD3 arm; IgG2) heavy 1: EVQLVESGGGLVQPGGSLRLSCAVSGGSFSGYYWNWIRQPPGKGLEWIGEINHSGSATYNPSLKSRVTISVDTAKNSLYLQMNSLRAEDTAVYYCARGLYNWNVDHWGQGTLVTVSSASTKGPSVFPLAPCSRSTSESTAALGCLVKDYFPEPVTVSWNSGALTSGVHTFPAVLQSSGLYSLSSVVTVPSSNFGTQTYTCNVDHKPSNTKVDKTVERKCEVECPECPAPPVAGPSVFLFPPKPKDTLMISRTPEVTCVVVAVSHEDPEVQFNWYVDGVEVHNAKTKPREEQFNSTFRVVSVLTVVHQDWLNGKEYKCKVSNKGLPSSIEKTISKTKGQPREPQVYTLPPSREEMTKNQVSLTCEVKGFYPSDIAVEWESNGQPENNYKTTPPMLDSDGSFFLYSKLTVDKSRWQQGNVFSCSVMHEALHNHYTQKSLSLSPG light 1: DIQMTQSPSSLSASVGDRVTITCRASQGIRNDLGWYQQKPGKAPKRLIYAASSLQSGVPSRFSGSGSGTDFTLTISSLQPEDFATYYCLQHNAYPRTFGGGTKVEIKRTVAAPSVFIFPPSDEQLKSGTASVVCLLNNFYPREAKVQWKVDNALQSGNSQESVTEQDSKDSTYSLSSTLTLSKADYEKHKVYACEVTHQGLSSPVTKSFNRGEC heavy 2: EVQLVESGGGLVQPGGSLRLSCAASGFTFSDYYMTWVRQAPGKGLEWVAFIRNQARGYTSDHNPSVKGRFTISRDNAKNSLYLQMNSLRAEDTAVYYCARDRPSYYVLDYWGQGTTVTVSSASTKGPSVFPLAPCSRSTSESTAALGCLVKDYFPEPVTVSWNSGALTSGVHTFPAVLQSSGLYSLSSVVTVPSSNFGTQTYTCNVDHKPSNTKVDKTVERKCRVRCPRCPAPPVAGPSVFLFPPKPKDTLMISRTPEVTCVVVAVSHEDPEVQFNWYVDGVEVHNAKTKPREEQFNSTFRVVSVLTVVHQDWLNGKEYKCKVSNKGLPSSIEKTISKTKGQPREPQVYTLPPSREEMTKNQVSLTCLVKGFYPSDIAVEWESNGQPENNYKTTPPMLDSDGSFFLYSRLTVDKSRWQQGNVFSCSVMHEALHNHYTQKSLSLSPGK light 2: DIQMTQSPSSLSASVGDRVTITCTSSQSLFNVRSQKNYLAWYQQKPGKAPKLLIYWASTRESGVPSRFSGSGSGTDFTLTISSLQPEDFATYYCKQSYDLFTFGGGTKVEIKRTVAAPSVFIFPPSDEQLKSGTASVVCLLNNFYPREAKVQWKVDNALQSGNSQESVTEQDSKDSTYSLSSTLTLSKADYEKHKVYACEVTHQGLSSPVTKSFNRGEC | 790 | – | 2810
10 | 5.22 | B7-H4xCD3 bispecific antibody 1169 (bispecific antibody, IgG2, Chains 1-2: B7-H4 arm; chains 3-4: CD3 arm; IgG2) heavy 1: EVQLLESGGGLVQPGGSLRLSCAASGFTFSSYAMSWVRQAPGKGLEWVSAISGGGGSTYYADSVKGRFTISRDNSKNTLYLQMNSLRAEDTAVYYCARDIQWYGESTLFDYWGQGTLVTVSSASTKGPSVFPLAPCSRSTSESTAALGCLVKDYFPEPVTVSWNSGALTSGVHTFPAVLQSSGLYSLSSVVTVPSSNFGTQTYTCNVDHKPSNTKVDKTVERKCEVECPECPAPPVAGPSVFLFPPKPKDTLMISRTPEVTCVVVAVSHEDPEVQFNWYVDGVEVHNAKTKPREEQFNSTFRVVSVLTVVHQDWLNGKEYKCKVSNKGLPSSIEKTISKTKGQPREPQVYTLPPSREEMTKNQVSLTCEVKGFYPSDIAVEWESNGQPENNYKTTPPMLDSDGSFFLYSKLTVDKSRWQQGNVFSCSVMHEALHNHYTQKSLSLSPG light 1: DIQMTQSPSSLSASVGDRVTITCRASQSTRSWLAWHQQKPGKAPKLLIYKASSLESGVPSRFSGSGSGTDFTLTISSLQPEDFATYYCQQYGSYSRTFGQGTKVEIKRTVAAPSVFIFPPSDEQLKSGTASVVCLLNNFYPREAKVQWKVDNALQSGNSQESVTEQDSKDSTYSLSSTLTLSKADYEKHKVYACEVTHQGLSSPVTKSFNRGEC heavy 2: EVQLVESGGGLVQPGGSLRLSCAASGFTFSDYYMTWVRQAPGKGLEWVAFIRNQARGYTSDHNPSVKGRFTISRDNAKNSLYLQMNSLRAEDTAVYYCARDRPSYYVLDYWGQGTTVTVSSASTKGPSVFPLAPCSRSTSESTAALGCLVKDYFPEPVTVSWNSGALTSGVHTFPAVLQSSGLYSLSSVVTVPSSNFGTQTYTCNVDHKPSNTKVDKTVERKCRVRCPRCPAPPVAGPSVFLFPPKPKDTLMISRTPEVTCVVVAVSHEDPEVQFNWYVDGVEVHNAKTKPREEQFNSTFRVVSVLTVVHQDWLNGKEYKCKVSNKGLPSSIEKTISKTKGQPREPQVYTLPPSREEMTKNQVSLTCLVKGFYPSDIAVEWESNGQPENNYKTTPPMLDSDGSFFLYSRLTVDKSRWQQGNVFSCSVMHEALHNHYTQKSLSLSPGK light 2: DIQMTQSPSSLSASVGDRVTITCTSSQSLFNVRSQKNYLAWYQQKPGKAPKLLIYWASTRESGVPSRFSGSGSGTDFTLTISSLQPEDFATYYCKQSYDLFTFGGGTKVEIKRTVAAPSVFIFPPSDEQLKSGTASVVCLLNNFYPREAKVQWKVDNALQSGNSQESVTEQDSKDSTYSLSSTLTLSKADYEKHKVYACEVTHQGLSSPVTKSFNRGEC | 975 | 190 | 818
6.88 | 5.51 | B7-H4xCD3 bispecific antibody 1170 (bispecific antibody, IgG2, Chains 1-2: B7-H4 arm; chains 3-4: CD3 arm; IgG2) heavy 1: EVQLLESGGGLVQPGGSLRLSCAASGFTFSSYAMSWVRQAPGKGLEWVSAISGGGGSTYYADSVKGRFTISRDNSKNTLYLQMNSLRAEDTAVYYCARDIQWYGESTLFDYWGQGTLVTVSSASTKGPSVFPLAPCSRSTSESTAALGCLVKDYFPEPVTVSWNSGALTSGVHTFPAVLQSSGLYSLSSVVTVPSSNFGTQTYTCNVDHKPSNTKVDKTVERKCEVECPECPAPPVAGPSVFLFPPKPKDTLMISRTPEVTCVVVAVSHEDPEVQFNWYVDGVEVHNAKTKPREEQFNSTFRVVSVLTVVHQDWLNGKEYKCKVSNKGLPSSIEKTISKTKGQPREPQVYTLPPSREEMTKNQVSLTCEVKGFYPSDIAVEWESNGQPENNYKTTPPMLDSDGSFFLYSKLTVDKSRWQQGNVFSCSVMHEALHNHYTQKSLSLSPG light 1: DIQMTQSPSSLSASVGDRVTITCRASQSTRSWLAWLQQKPGKAPKLLIYKASSLESGVPSRFSGSGSGTDFTLTISSLQPEDFATYYCQQYGSYSRTFGQGTKVEIKRTVAAPSVFIFPPSDEQLKSGTASVVCLLNNFYPREAKVQWKVDNALQSGNSQESVTEQDSKDSTYSLSSTLTLSKADYEKHKVYACEVTHQGLSSPVTKSFNRGEC heavy 2: EVQLVESGGGLVQPGGSLRLSCAASGFTFSDYYMTWVRQAPGKGLEWVAFIRNQARGYTSDHNPSVKGRFTISRDNAKNSLYLQMNSLRAEDTAVYYCARDRPSYYVLDYWGQGTTVTVSSASTKGPSVFPLAPCSRSTSESTAALGCLVKDYFPEPVTVSWNSGALTSGVHTFPAVLQSSGLYSLSSVVTVPSSNFGTQTYTCNVDHKPSNTKVDKTVERKCRVRCPRCPAPPVAGPSVFLFPPKPKDTLMISRTPEVTCVVVAVSHEDPEVQFNWYVDGVEVHNAKTKPREEQFNSTFRVVSVLTVVHQDWLNGKEYKCKVSNKGLPSSIEKTISKTKGQPREPQVYTLPPSREEMTKNQVSLTCLVKGFYPSDIAVEWESNGQPENNYKTTPPMLDSDGSFFLYSRLTVDKSRWQQGNVFSCSVMHEALHNHYTQKSLSLSPGK light 2: DIQMTQSPSSLSASVGDRVTITCTSSQSLFNVRSQKNYLAWYQQKPGKAPKLLIYWASTRESGVPSRFSGSGSGTDFTLTISSLQPEDFATYYCKQSYDLFTFGGGTKVEIKRTVAAPSVFIFPPSDEQLKSGTASVVCLLNNFYPREAKVQWKVDNALQSGNSQESVTEQDSKDSTYSLSSTLTLSKADYEKHKVYACEVTHQGLSSPVTKSFNRGEC | 595 | 130 | 444
